This experiment concerns the target ACE2, membrane-anchored, endogenously expressed on VeroE6 cells (African green monkey (endogenous in VeroE6)). The experiment is described as follows: single-molecule force spectroscopy (AFM).

“SARS-CoV-2 Spike receptor binding domain, Wuhan reference strain, monomer (from UniProt P0DTC2 319-541) (domain or fragment)” registered a Kd of 3.2 nM, a koff of 0.00032 s⁻¹ and a kon of 100000 M⁻¹ s⁻¹.

Broadly, the Kd is the constant that tells how readily two partners part at equilibrium. What is called koff is a measure of how fast the partners let go of each other. As a reminder, the kon is the second-order rate constant of association.

Values taken from PMC9789309.
